Results published in patent US6319685A (Unigene Laboratories, Inc., priority 1987, dated 2001).

What was measured:
[1] = specific alpha-amidating activity, conversion of Dansyl-D-Tyr-Val-Gly to Dansyl-D-Tyr-Val-CONH2; assay type: biochemical; conditions: CA-77 media
Experimental: These and other objects will become apparent from a thorough reading of the present disclosure. […] All specific activity units set forth herein are based upon the conversion of Dansyl-D-Try-Val-Gly-COOH to Dansyl-D-Tyr-Val-CONH2. One mU is defined as the amount of activity needed to convert one nanomole (nmole) of Dansyl-D-Tyr-Val-Gly-COOH to one nmole of Dansyl-D-Tyr-Val-CONH2 per minute at 37° C. and pH 7.0 in the presence of ascorbate ions at a concentration of 3 mM (based on total reaction mixture including enzyme, substrate, co-factors, etc.), molecular oxygen in a molar excess over substrate and a concentration of cupric ions effective to maximize activity (usually about 2 μM depending on the state of purity of the enzyme).
Each purification step can be monitored for both protein content and the level of alpha-amidation activity. This information is used to calculate the specific activity of the enzyme which serves as an indicator of the relative purity of the enzyme.
Sephacryl S-300 (Pharmacia) was equilibrated in 50 mM Tris HCl pH 7.0 and poured into a K 50/100 column (Pharmacia) according to the manufacturer's instructions. The bed volume of the column was approximately 1.3 liters. The Sample was loaded onto the column in a volume representing approximately 3 percent of the bed volume of the column. Proteins were eluted from the column in 50 mM Tris HCl pH 7.0 at a flow rate of approximately 2 ml per minute.
The reaction mixture for the conversion of the monodansyl substrate contained:
The samples were prepared in duplicate and incubated at 37° C. for 10, 20 and 30 minutes time periods. The enzymatic reaction was halted by the addition of 10 ul 500 mM EDTA.

[2] = nonspecific proteolytic activity of enzyme preparation; assay type: biochemical; conditions: CA-77 media, after DEAE and Sephacryl 300-SF

- nonspecific proteolytic activity [2]: free of nonspecific proteolytic activity
B1: alpha-amidating enzyme (CA-77): alpha-amidating enzyme derived from CA-77 cell tissue culture media (protein, UniProt P14925 36-976, looked up)
Peptidylglycine …: FKETTRSFSNECLGTIGPVTPLDASDFALDIRMPGVTPKESDTYFCMSMRLPVDEEAFVIDFKPRASMDTVHHMLLFGCNMPSSTGSYWFCDEGTCTDKANILYAWARNAPPTRLPKGVGFRVGGETGSKYFVLQVHYGDISAFRDNHKDCSGVSVHLTRVPQPLIAGMYLMMSVDTVIPPGEKVVNADISCQYKMYPMHVFAYRVHTHHLGKVVSGYRVRNGQWTLIGRQNPQLPQAFYPVEHPVDVTFGDILAARCVFTGEGRTEATHIGGTSSDEMCNLYIMYYMEAKYALSFMTCTKNVAPDMFRTIPAEANIPIPVKPDMVMMHGHHKEAENKEKSALMQQPKQGEEEVLEQGDFYSLLSKLLGEREDVHVHKYNPTEKTESGSDLVAEIANVVQKKDLGRSDAREGAEHEEWGNAILVRDRIHRFHQLESTLRPAESRAFSFQQPGEGPWEPEPSGDFHVEEELDWPGVYLLPGQVSGVALDSKNNLVIFHRGDHVWDGNSFDSKFVYQQRGLGPIEEDTILVIDPNNAEILQSSGKNLFYLPHGLSIDTDGNYWVTDVALHQVFKLDPHSKEGPLLILGRSMQPGSDQNHFCQPTDVAVEPSTGAVFVSDGYCNSRIVQFSPSGKFVTQWGEESSGSSPRPGQFSVPHSLALVPHLDQLCVADRENGRIQCFKTDTKEFVREIKHASFGRNVFAISYIPGFLFAVNGKPYFGDQEPVQGFVMNFSSGEIIDVFKPVRKHFDMPHDIVASEDGTVYIGDAHTNTVWKFTLTEKMEHRSVKKAGIEVQEIKEAEAVVEPKVENKPTSSELQKMQEKQKLSTEPGSGVSVVLITTLLVIPVLVLLAIVMFIRWKKSRAFGDHDRKLESSSGRVLGRFRGKGSGGLNLGNFFASRKGYSRKGFDRVSTEGSDQEKDEDDGTESEEEYSAPLPKPAPSS
- activity ([1]; after DEAE and Sephacryl 300-SF): at least 50 mU/mg protein
- specific activity ([1]; fractions from DEAE weak anion exchange cartridge): 10-15 mU/mg
